Measured values from US12545899B2, “Luciferase enzymes for use with thermostable luciferins in bioluminescent assays” (Promega Corporation, priority 2018, dated 2026).
Residue numbers refer to the chain shown, from its start. In names and notes the source's numbering stands.

B1: MK0148: SEQ ID NO: 114; H244W+S193A+N228D+L305F+S306P+I109V+C38R+F55I+Y108F+A316W+Y339M+T342S+V348I+C257R+T289S+S313T+D435G+L437R+W510R (protein)
chain: MADKNILYGPEPFYPLEDGTAGEQMFDALSRYAAIPGRIALTNAHTKENVLYEEILKLSCRLAESFKKYGLKQNDTIAVCSENSLQFFLPVIASLYLGIIVAPVNDKFVERELIHSLGIVKPRIVFCSKNTFQKVLNVKSKLKSIETIIILDLNEDLGGYQCLNNFISQNSDSNLDVKKFKPYSFNRDDQVAAIMFSSGTTGLPKGVMLTHKNIVARFSIAKDPTFGDAINPTSAILTVIPFHWGFGMMTTLGYFTCGFRVVLMHTFEEKLFLQSLQDYKVESTLLVPTLMAFLAKSALVEKYDFPHLKEIATGGWPLSKEIGEMVKKRFKLNFVRQGMGLSETTSAILITPKGDAKPGSTGKIVPLHAVKVVDPTTGKILGPNEPGELYFKGPMIMKGYYNNEEATKAIIDNDGWLRSGDIAYYDNDGHFYIVGRRKSLIKYKGYQVAPAEIEGILLQHPYIVDAGVTGIPDEAAGELPAAGVVVQTGKYLNEQIVQDYVASQVSTAKWLRGGVKFLDEIPKGSTGKIDRKVLRQMLEKHTNGHHHHHHHH
B2: MK0147: SEQ ID NO: 113; H244W+S193A+N228D+L305F+S306P+I109V+C38R+F55I+Y108F+A316W+Y339M+T342S+V348I+W510R (protein)
chain: B1 chain with T313S, G435D, R437L, W510R
B3: MK0141: SEQ ID NO: 108; H244W+S193A+N228D+L305F+S306P+I109V+C38R+F55I+Y108F+A316W+Y339M+T342S+V348I+T284A (protein)
chain: B1 chain with T284A, T313S, G435D, R437L
B4: MK0146: SEQ ID NO: 112; H244W+S193A+N228D+L305F+S306P+I109V+C38R+F55I+Y108F+A316W+Y339M+T342S+V348I+L437R (protein)
chain: B1 chain with T313S, G435D
B5: MK0145: SEQ ID NO: 111; H244W+S193A+N228D+L305F+S306P+I109V+C38R+F55I+Y108F+A316W+Y339M+T342S+V348I+D435G (protein)
chain: B1 chain with T313S, R437L

Experiments:
[1] = Kinetic analysis of thermostable variants with CS0280 (Tables 13, 14); assay type: biochemical; details: 2 mM ATP
From the text: (§1) Tables 13 and 14 include representative results of kinetic analysis of the thermostable variants with D/L luciferin, CS0333, and CS0280. The panel of enzyme variants highlight amino acid substitutions that further improve upon MK0137 in maximum luminescence (Vmax) or Km in different buffers with the different substrates tested (D/L-luciferin, CS0333, and CS0280). In particular, enzyme variants MK0151 and MK153 show improvements relative to MK0137 across multiple buffers with multiple substrates.

[2] = Kinetic analysis of thermostable variants with CS0333 (Tables 13, 14); assay type: biochemical; details: 2 mM ATP
From the text: as §1

[3] = Luminescence at 1 mM CS0333 (Table 11); assay type: biochemical; details: 1 mM substrate, 1 mM ATP
From the text: (§2) Tables 10 and 11 include representative results of kinetic analysis of the thermostable variants with D/L luciferin, CS0333, and CS0280. […] MK0135 and MK0137 have amino acid substitutions that improve thermostability relative to MK0133 and MK0134, respectively, while retaining activity on the luciferin analogs CS0333 and CS0280.

[4] = Luminescence at 1 mM CS0280 (Table 11); assay type: biochemical; details: 1 mM substrate, 1 mM ATP
From the text: as §2

[5] = Kinetic analysis of thermostable variants with D/L-luciferin (Tables 13, 14); assay type: biochemical; details: 2 mM ATP
From the text: as §1

[6] = Luminescence at 1 mM D/L-luciferin (Table 11); assay type: biochemical; details: 1 mM substrate, 1 mM ATP
From the text: as §2

[7] = Kinetic analysis of thermostable variants with 400 fM-4 mM CS0280 (Table 12); assay type: biochemical; details: 4 mM ATP
Procedure: Table 12 includes representative results of kinetic analysis of the thermostable variants with 400 fM-4 mM CS0280. This panel of enzyme variants have a combination of improved thermostability and brightness with CS0280 relative to their progenitor enzyme variants MK134 and MK137.

[8] = Differential scanning fluorimetry (DSF) analysis; assay type: physicochemical; details: Table 12
In short: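 Thermal melt with 5× final Sypro Orange: ramp 1° C/min from 30 to 95° C, reading each 60 s, derivative of fluorescence plotted by temperature. Luciferase variants were in 20 mM HEPES pH 7.5, 200 mM NaCl, 1 mM EDTA; other enzymes in 50 mM HEPES pH 7.5, 100 mM NaCl, 2 mM EDTA.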

| Molecule | Km ([1]; BrightGlo Buffer) [µM] | Vmax (RLU) ([1]; BrightGlo Buffer) | Km ([1]; Detection Reagent Buffer) [µM] | Vmax (RLU) ([1]; Detection Reagent Buffer) | Km ([2]; BrightGlo Buffer) [µM] | Vmax (RLU) ([2]; BrightGlo Buffer) | Km ([2]; Detection Reagent Buffer) [µM] | Vmax (RLU) ([2]; Detection Reagent Buffer) | Km ([5]; BrightGlo Buffer) [µM] | Vmax (RLU) ([5]; BrightGlo Buffer) | Km ([5]; Detection Reagent Buffer) [µM] | Vmax (RLU) ([5]; Detection Reagent Buffer) | Km ([7]; BrightGlo Buffer) [µM] | Vmax (RLU) ([7]; BrightGlo Buffer) | Km ([7]; Detection Reagent Buffer) [µM] | Vmax (RLU) ([7]; Detection Reagent Buffer) | DSF Tm (° C.) [8] [°C] | also measured |
| --- | --- | --- | --- | --- | --- | --- | --- | --- | --- | --- | --- | --- | --- | --- | --- | --- | --- | --- |
| B1 | 8.94 | 359,383 RLU | 619 | 26,247 RLU | 8.44 | 2,895,248 RLU | 48.4 | 543,865 RLU | 0.0737 | 1,993,509 RLU | 0.21 | 332,703 RLU | – | – | – | – | – | Vmax (RLU) CS0333 BrightGlo Buffer ([3]; BrightGlo Buffer): 3,525,730 RLU; Vmax (RLU) CS0333 Detection Reagent Buffer ([3]; Detection Reagent Buffer): 2,139,740 RLU; Vmax (RLU) CS0280 BrightGlo Buffer ([4]; BrightGlo Buffer): 620,182 RLU; Vmax (RLU) CS0280 Detection Reagent Buffer ([4]; Detection Reagent Buffer): 21,505 RLU; Vmax (RLU) D/L-luciferin BrightGlo Buffer ([6]; BrightGlo Buffer): 1,227,230 RLU; Vmax (RLU) D/L-luciferin Detection Reagent Buffer ([6]; Detection Reagent Buffer): 515,688 RLU |
| B2 | – | – | – | – | – | – | – | – | – | – | – | – | 7.12 | 1,101,042 RLU | 26.1 | 62,099 RLU | 71 | – |
| B3 | – | – | – | – | – | – | – | – | – | – | – | – | 7.12 | 1,701,019 RLU | 40.6 | 89,238 RLU | 73 | – |
| B4 | – | – | – | – | – | – | – | – | – | – | – | – | 4.21 | 1,114,607 RLU | 33.3 | 55,964 RLU | 72 | – |
| B5 | 5.72 | 368,599 RLU | 391 | 38,794 RLU | 6.83 | 2,891,897 RLU | 21.5 | 591,292 RLU | 0.136 | 334,536 RLU | 0.227 | 41,310 RLU | 11.9 | 1,193,838 RLU | 50.6 | 66,768 RLU | 72 | – |
